From patent publication US20210388087A1 (Chugai, published 2021) come the findings set out here.

Sequences and labels used below:
B1: CE115HA000 K52D one-arm antibody (antibody, human IgG1, kappa, L234A L235A, N297A, name in Kabat numbering)
heavy: QVQLVESGGGVVQPGRSLRLSCAASGFTFSNAWMHWVRQAPGKGLEWVAQIDAKSNNYATYYAESVKGRFTISRDDSKNSLYLQMNSLKTEDTAVYYCRYVHYGAYYGVDAWGQGTTVTVSSASTKGPSVFPLAPSSKSTSGGTAALGCLVKDYFPEPVTVSWNSGALTSGVHTFPAVLQSSGLYSLSSVVTVPSSSLGTQTYICNVNHKPSNTKVDKKVEPKSCDKTHTCPPCPAPEAAGGPSVFLFPPKPKDTLMISRTPEVTCVVVDVSHEDPEVKFNWYVDGVEVHNAKTKPREEQYASTYRVVSVLTVLHQDWLNGKEYKCKVSNKALPAPIEKTISKAKGQPREPQVYTLPPSRCELTKNQVSLSCAVKGFYPSDIAVEWESNGQPENNYKTTPPVLDSDGSFFLVSKLTVDKSRWQQGNVFSCSVMHEALHNHYTQKSLSLSPDYKDDDDK
chain: EPKSSDKTHTCPPCPAPELLGGPSVFLFPPKPKDTLMISRTPEVTCVVVDVSHEDPEVKFNWYVDGVEVHNAKTKPREEQYNSTYRVVSVLTVLHQDWLNGKEYKCKVSNKALPAPIEKTISKAKGQPREPQVCTLPPSRDELTKNQVSLWCLVKGFYPSDIAVEWESNGQPENNYKTTPPVLDSDGSFFLYSKLTVDKSRWQQGNVFSCSVMHEALHNRYTQKSLSLSP
light: DIVMTQSPLSLPVTPGEPASISCRSSQSLVHSNRNTYLHWYQQKPGQAPRLLIYKVSNRFSGVPDRFSGSGSGTDFTLKISRVEAEDVGVYYCGQGTQVPYTFGQGTKLEIKRTVAAPSVFIFPPSDEQLKSGTASVVCLLNNFYPREAKVQWKVDNALQSGNSQESVTEQDSKDSTYSLSSTLTLSKADYEKHKVYACEVTHQGLSSPVTKSFNRGEC
B2: CE115HA000 K52F one-arm antibody (antibody, human IgG1, kappa, L234A L235A, N297A, name in Kabat numbering)
heavy: QVQLVESGGGVVQPGRSLRLSCAASGFTFSNAWMHWVRQAPGKGLEWVAQIFAKSNNYATYYAESVKGRFTISRDDSKNSLYLQMNSLKTEDTAVYYCRYVHYGAYYGVDAWGQGTTVTVSSASTKGPSVFPLAPSSKSTSGGTAALGCLVKDYFPEPVTVSWNSGALTSGVHTFPAVLQSSGLYSLSSVVTVPSSSLGTQTYICNVNHKPSNTKVDKKVEPKSCDKTHTCPPCPAPEAAGGPSVFLFPPKPKDTLMISRTPEVTCVVVDVSHEDPEVKFNWYVDGVEVHNAKTKPREEQYASTYRVVSVLTVLHQDWLNGKEYKCKVSNKALPAPIEKTISKAKGQPREPQVYTLPPSRCELTKNQVSLSCAVKGFYPSDIAVEWESNGQPENNYKTTPPVLDSDGSFFLVSKLTVDKSRWQQGNVFSCSVMHEALHNHYTQKSLSLSPDYKDDDDK
chain: EPKSSDKTHTCPPCPAPELLGGPSVFLFPPKPKDTLMISRTPEVTCVVVDVSHEDPEVKFNWYVDGVEVHNAKTKPREEQYNSTYRVVSVLTVLHQDWLNGKEYKCKVSNKALPAPIEKTISKAKGQPREPQVCTLPPSRDELTKNQVSLWCLVKGFYPSDIAVEWESNGQPENNYKTTPPVLDSDGSFFLYSKLTVDKSRWQQGNVFSCSVMHEALHNRYTQKSLSLSP
light: DIVMTQSPLSLPVTPGEPASISCRSSQSLVHSNRNTYLHWYQQKPGQAPRLLIYKVSNRFSGVPDRFSGSGSGTDFTLKISRVEAEDVGVYYCGQGTQVPYTFGQGTKLEIKRTVAAPSVFIFPPSDEQLKSGTASVVCLLNNFYPREAKVQWKVDNALQSGNSQESVTEQDSKDSTYSLSSTLTLSKADYEKHKVYACEVTHQGLSSPVTKSFNRGEC
B3: CE115HA000 K52E one-arm antibody (antibody, human IgG1, kappa, L234A L235A, N297A, name in Kabat numbering)
heavy: QVQLVESGGGVVQPGRSLRLSCAASGFTFSNAWMHWVRQAPGKGLEWVAQIEAKSNNYATYYAESVKGRFTISRDDSKNSLYLQMNSLKTEDTAVYYCRYVHYGAYYGVDAWGQGTTVTVSSASTKGPSVFPLAPSSKSTSGGTAALGCLVKDYFPEPVTVSWNSGALTSGVHTFPAVLQSSGLYSLSSVVTVPSSSLGTQTYICNVNHKPSNTKVDKKVEPKSCDKTHTCPPCPAPEAAGGPSVFLFPPKPKDTLMISRTPEVTCVVVDVSHEDPEVKFNWYVDGVEVHNAKTKPREEQYASTYRVVSVLTVLHQDWLNGKEYKCKVSNKALPAPIEKTISKAKGQPREPQVYTLPPSRCELTKNQVSLSCAVKGFYPSDIAVEWESNGQPENNYKTTPPVLDSDGSFFLVSKLTVDKSRWQQGNVFSCSVMHEALHNHYTQKSLSLSPDYKDDDDK
chain: EPKSSDKTHTCPPCPAPELLGGPSVFLFPPKPKDTLMISRTPEVTCVVVDVSHEDPEVKFNWYVDGVEVHNAKTKPREEQYNSTYRVVSVLTVLHQDWLNGKEYKCKVSNKALPAPIEKTISKAKGQPREPQVCTLPPSRDELTKNQVSLWCLVKGFYPSDIAVEWESNGQPENNYKTTPPVLDSDGSFFLYSKLTVDKSRWQQGNVFSCSVMHEALHNRYTQKSLSLSP
light: DIVMTQSPLSLPVTPGEPASISCRSSQSLVHSNRNTYLHWYQQKPGQAPRLLIYKVSNRFSGVPDRFSGSGSGTDFTLKISRVEAEDVGVYYCGQGTQVPYTFGQGTKLEIKRTVAAPSVFIFPPSDEQLKSGTASVVCLLNNFYPREAKVQWKVDNALQSGNSQESVTEQDSKDSTYSLSSTLTLSKADYEKHKVYACEVTHQGLSSPVTKSFNRGEC
B4: CE115HA000 K52H one-arm antibody (antibody, human IgG1, kappa, L234A L235A, N297A, name in Kabat numbering)
heavy: QVQLVESGGGVVQPGRSLRLSCAASGFTFSNAWMHWVRQAPGKGLEWVAQIHAKSNNYATYYAESVKGRFTISRDDSKNSLYLQMNSLKTEDTAVYYCRYVHYGAYYGVDAWGQGTTVTVSSASTKGPSVFPLAPSSKSTSGGTAALGCLVKDYFPEPVTVSWNSGALTSGVHTFPAVLQSSGLYSLSSVVTVPSSSLGTQTYICNVNHKPSNTKVDKKVEPKSCDKTHTCPPCPAPEAAGGPSVFLFPPKPKDTLMISRTPEVTCVVVDVSHEDPEVKFNWYVDGVEVHNAKTKPREEQYASTYRVVSVLTVLHQDWLNGKEYKCKVSNKALPAPIEKTISKAKGQPREPQVYTLPPSRCELTKNQVSLSCAVKGFYPSDIAVEWESNGQPENNYKTTPPVLDSDGSFFLVSKLTVDKSRWQQGNVFSCSVMHEALHNHYTQKSLSLSPDYKDDDDK
chain: EPKSSDKTHTCPPCPAPELLGGPSVFLFPPKPKDTLMISRTPEVTCVVVDVSHEDPEVKFNWYVDGVEVHNAKTKPREEQYNSTYRVVSVLTVLHQDWLNGKEYKCKVSNKALPAPIEKTISKAKGQPREPQVCTLPPSRDELTKNQVSLWCLVKGFYPSDIAVEWESNGQPENNYKTTPPVLDSDGSFFLYSKLTVDKSRWQQGNVFSCSVMHEALHNRYTQKSLSLSP
light: DIVMTQSPLSLPVTPGEPASISCRSSQSLVHSNRNTYLHWYQQKPGQAPRLLIYKVSNRFSGVPDRFSGSGSGTDFTLKISRVEAEDVGVYYCGQGTQVPYTFGQGTKLEIKRTVAAPSVFIFPPSDEQLKSGTASVVCLLNNFYPREAKVQWKVDNALQSGNSQESVTEQDSKDSTYSLSSTLTLSKADYEKHKVYACEVTHQGLSSPVTKSFNRGEC

In the assay the target is T1, CD3 epsilon homodimer protein (UniProt P07766 23-126).
T1 construct: immobilized on Sensor chip CM4 by amine coupling; also called CD3 (CD3 epsilon)
T1 sequence (P07766 23-126): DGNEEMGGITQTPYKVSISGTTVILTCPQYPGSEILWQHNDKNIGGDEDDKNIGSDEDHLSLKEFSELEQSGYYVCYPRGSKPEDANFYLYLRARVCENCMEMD
Kind of assay: SPR (Biacore T200), CD3 epsilon homodimer on CM4 chip, one-arm antibody as analyte, 25 C.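 Further: homodimer attached to the sensor surface via amine coupling, HBS-EP+ used as running buffer during binding runs.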 On the technique in general: SPR reads the build-up and loss of mass on a sensor chip optically.
For the molecule B1, the “ratio of amounts bound (altered form / CE115HA000)” value is 0.25.
In the case of B2, the “ratio of amounts bound (altered form / CE115HA000)” value was 0.17.
The figure for B3 is 0.26; for B4 it is 0.22.
